Blank lines part the entries; values can stand above or below the binder they belong to.
How the values were obtained:
[1] = biological target: T1, human Interleukin-17A (hIL-17A) (human, UniProt Q16552 24-154); experiment: cell-based or functional assay
[2] = biological target: T1, human Interleukin-17A (hIL-17A); experiment: SPR, Biacore T200, 25 C, antibody captured on Protein A CM5 chip, hIL-17A in flow, 1:1 model, mean of two runs
Description: The Protein A was chemically coupled to the CM5 chip, and an appropriate amount of antibody was immobilized by the capture method, so that the Rmax was less than 50 RU, and the capture flow rate was 10 μl/min. The antigen was gradually diluted, and the flow rate of the instrument was switched to 30 μl/min. The diluted antigen was flowed through the reference channel and the channel of immobilized antibody in sequence from low to high concentration, and the running buffer was flowed through as a negative control. After each binding and dissociation was completed, the chip was regenerated with glycine, pH1.5. Fitting was performed with the build-in software in the instrument according to a 1:1 binding model. The association rate constant kₐ, the dissociation rate constant kd, and the equilibrium dissociation constant KD values of the antibody were calculated.

T1 sequence (Q16552 24-154): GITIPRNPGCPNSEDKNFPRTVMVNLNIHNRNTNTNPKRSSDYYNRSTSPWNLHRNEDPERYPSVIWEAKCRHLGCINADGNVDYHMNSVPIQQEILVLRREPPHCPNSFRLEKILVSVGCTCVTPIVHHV

IC50 (read off the curve) [1]: ~0.02 µg/mL
Kd [2]: 0.00707 nM
B1: anti-human interleukin 17A monoclonal antibody QX002N (antibody, human IgG1, kappa, V domains shown)
VH: EVQLQESGPGLVKPSETLSLTCTVSGIDLSLFYMSWIRQPPGKGLEWIGTIHEVASSYYASWAKGRVTISKDTSKNQFSLKLSSVTAADTAVYYCARETYSSRYPYPNIWGQGTLVTVSS
VL: DIQMTQSPSSVSASVGDRVTITCQASQNIGGSLAWYQQKPGKAPKLLIYGASSLASGVPSRFSGSGSGTDFTLTISSLQPEDFATYYCQSYNTISTYGLAFGGGTKVEIKR
notes: Claim 27 joins 7/8 with 10/11; Expressed in ExpiCHO-S cells and purified on Protein A; also called 37-5; humanized clone 37 #

Kd [2]: 0.0154 nM
koff [2]: 2.58e-05 s⁻¹
kon [2]: 1.7e+06 M⁻¹ s⁻¹
B2: Ixekizumab (IXE) (antibody, V domains shown)
VH: QVQLVQSGAEVKKPGSSVKVSCKASGYSFTDYHIHWVRQAPGQGLEWMGVINPMYGTTDYNQRFKGRVTITADESTSTAYMELSSLRSEDTAVYYCARYDYFTGTGVYWGQGTLVTVSS
VL: DIVMTQTPLSLSVTPGQPASISCRSSRSLVHSRGNTYLHWYLQKPGQSPQLLIYKVSNRFIGVPDRFSGSGSGTDFTLKISRVEAEDVGVYYCSQSTHLPFTFGQGTKLEIKR

Source: US20210230264A1 (JIANGSU QYUNS THERAPEUTICS, published 2021)
